Measured values reported in publication PMC2791859.
pKd: −log10 of the molar value.

Experiments:
[1] = biological target: FcγRIa, recombinant extracellular domain (UniProt P12314); assay: SPR; Biacore 3000; extracellular domain of FcγRIa immobilized covalently or through enzymatic, site-directed biotinylation; antibody as analyte; kinetic analysis at pH 7.4
[2] = biological target: FcRn, recombinant extracellular domain (UniProt P55899); assay: SPR; Biacore 3000; extracellular domain of FcRn immobilized covalently or through enzymatic, site-directed biotinylation; antibody as analyte; steady-state analysis at pH 6.0
Sequence of UniProt P55899 (P55899 whole entry, looked up, the tested form may be a part): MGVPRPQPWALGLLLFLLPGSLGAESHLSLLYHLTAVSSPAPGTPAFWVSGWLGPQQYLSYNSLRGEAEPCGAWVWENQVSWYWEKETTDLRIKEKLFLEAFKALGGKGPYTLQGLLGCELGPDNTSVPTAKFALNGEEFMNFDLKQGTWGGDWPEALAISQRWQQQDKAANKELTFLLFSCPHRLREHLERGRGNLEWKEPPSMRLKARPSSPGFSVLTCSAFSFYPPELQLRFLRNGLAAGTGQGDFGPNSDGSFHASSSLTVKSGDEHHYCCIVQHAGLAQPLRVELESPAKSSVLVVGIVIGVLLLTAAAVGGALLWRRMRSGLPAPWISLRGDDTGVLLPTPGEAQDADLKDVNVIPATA

Sequence of UniProt P12314 (P12314 16-292): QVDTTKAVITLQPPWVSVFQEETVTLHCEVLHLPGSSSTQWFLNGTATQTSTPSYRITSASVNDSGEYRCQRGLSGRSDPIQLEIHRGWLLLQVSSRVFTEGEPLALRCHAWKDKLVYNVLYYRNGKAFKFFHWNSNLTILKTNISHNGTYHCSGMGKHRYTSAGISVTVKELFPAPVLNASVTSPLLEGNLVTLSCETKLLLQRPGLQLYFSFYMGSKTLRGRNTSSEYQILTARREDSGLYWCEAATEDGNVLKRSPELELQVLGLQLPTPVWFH

pKd [1]: 7.13
koff [1]: 0.0021 s⁻¹
kon [1]: 29000 M⁻¹ s⁻¹
pKd [2]: 5.57
Substance: human IgG1 antibody Variant FS (F241S F243S)
